Data taken from patent publication US10006009B2, “Codon-optimized gene for mutated shrimp luciferase and method for use thereof” (JNC CORPORATION, priority 2013, dated 2018).

B1: nanoKAZ gene: codon-optimized gene for the mutated catalytic 19 kDa domain of Oplophorus luciferase, SEQ ID NO: 2 (nucleic acid)
DNA: ATGGTCTTCACCCTGGAGGACTTCGTCGGCGACTGGAGACAGACCGCCGGCTACAACCTGGACCAGGTCCTGGAGCAGGGCGGCGTCAGCAGCCTGTTCCAGAACCTGGGCGTCAGCGTCACCCCCATCCAGAGAATCGTCCTTAGCGGCGAGAACGGCCTGAAGATCGACATCCACGTCATCATCCCCTACGAGGGCCTGAGCGGCGACCAGATGGGCCAGATCGAGAAGATCTTCAAGGTCGTCTACCCCGTCGACGACCACCACTTCAAGGTCATCCTGCACTACGGCACCCTGGTCATCGACGGCGTCACCCCCAACATGATCGACTACTTCGGTAGACCCTACGAGGGCATCGCCGTCTTCGACGGCAAGAAGATCACCGTCACCGGCACCCTGTGGAACGGCAACAAGATCATCGACGAGAGACTGATCAACCCCGACGGCAGCCTGCTGTTCAGAGTCACCATCAACGGCGTCACCGGCTGGAGACTGTGCGAGAGAATCCTGGCCTAA
modifications: synthetic DNA
B2: nanoKAZ: mutated catalytic 19 kDa domain protein of Oplophorus luciferase encoded by the codon-optimized gene (SEQ ID NO: 1) (protein)
chain: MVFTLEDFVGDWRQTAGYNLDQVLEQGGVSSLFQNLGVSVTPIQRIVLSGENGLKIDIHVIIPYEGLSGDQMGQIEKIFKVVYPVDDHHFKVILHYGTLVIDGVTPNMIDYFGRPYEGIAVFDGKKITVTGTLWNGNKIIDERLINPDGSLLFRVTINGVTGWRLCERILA

Tested on: CHO-K1 cells
Experiment: Comparison of expression between nanoKAZ and nanoLuc genes in CHO-K1 cells
Type: cell-based, Chinese hamster
Source text: In order to compare the gene expression efficiency between the nanoKAZ gene and the nanoLuc gene in the cultured cell system, an expression vector that was different only in the nanoKAZ gene sequence and the nanoLuc gene sequence was constructed. The expression vector constructed was transfected to CHO-K1 cells. Then, the expression level of luciferase activity was compared by the following procedure. In the nanoLuc gene, the gene sequence described in Hall et al. (2012) ACS Chem. Biol. […] was chemically synthesized and provided for use.
The vector was introduced into CHO-K1 cells by the method described in EXAMPLE 3. After incubation for 23 hours, the culture medium and the cell extract were recovered. The luminescence activity in the culture medium and the cells was measured by the method described in EXAMPLE 4, using coelenterazine as a light-emitting substrate.

Molecule	expression relative to the nanoLuc gene (without secretory signal, in the culture medium and the cells)	luminescence activity relative to nanoLuc (with signal peptide, secreted into the culture medium)
B1	about 2 fold	
B2		about 1.4 fold
